Test results reported in paper PMC10177266, “Interaction between Human Papillomavirus-Encoded E6 Protein and AurB Induces Cell Immortalization and Proliferation—A Potential Target of Intervention” (Cancers, 2023).

Experiments:
Experiment in all cases: pull-down; purified GST fusion proteins on glutathione agarose incubated with in vitro-translated Flag-AurB for 1 h at room temperature; washed thrice with PBS with 0.1% Tween 20; bound AurB detected by western blot, quantitated with ImageJ and normalized to the GST fusion protein
[1] = molecular target: GST-HPV16 E6 with its C-terminus PDZ binding motif depleted (E6ΔPBM) (human papillomavirus type 16) (UniProt P03126)
GST-HPV16 E6 S150A = molecular target: T1, GST-HPV16 E6 S150A (human papillomavirus type 16, UniProt P03126 1-158, S150A); details: one partner purified
T1 construct: E6 oncoprotein of human papillomavirus type 16 with S150A; source: E. coli, purified on glutathione-conjugated agarose resin

GST-HPV16 E6 T140A = molecular target: T2, GST-HPV16 E6 T140A (human papillomavirus type 16, UniProt P03126 1-158, T140A); details: one partner purified
T2 construct: E6 oncoprotein of human papillomavirus type 16 with T140A; source: E. coli, purified on glutathione-conjugated agarose resin

GST-HPV16 E6 S145A = molecular target: T3, GST-HPV16 E6 S145A (human papillomavirus type 16, UniProt P03126 1-158, S145A); details: one partner purified
T3 construct: E6 oncoprotein of human papillomavirus type 16 with S145A; source: E. coli, purified on glutathione-conjugated agarose resin

GST-HPV16 E6 S89A = molecular target: T4, GST-HPV16 E6 S89A (human papillomavirus type 16, UniProt P03126 1-158, S89A); details: one partner purified
T4 construct: E6 oncoprotein of human papillomavirus type 16 with S89A; source: E. coli, purified on glutathione-conjugated agarose resin

Q: For “Flag-tagged Aurora kinase B (from UniProt Q96GD4 1-344) (enzyme)”, which fold of bound AurB against E6 wild type [1] is on record?
A: 3 fold

B1: Flag-tagged Aurora kinase B (enzyme)
chain: MAQKENSYPWPYGRQTAPSGLSTLPQRVLRKEPVTPSALVLMSRSNVQPTAAPGQKVMENSSGTPDILTRHFTIDDFEIGRPLGKGKFGNVYLAREKKSHFIVALKVLFKSQIEKEGVEHQLRREIEIQAHLHHPNILRLYNYFYDRRRIYLILEYAPRGELYKELQKSCTFDEQRTATIMEELADALMYCHGKKVIHRDIKPENLLLGLKGELKIADFGWSVHAPSLRRKTMCGTLDYLPPEMIEGRMHNEKVDLWCIGVLCYELLVGNPPFESASHNETYRRIVKVDLKFPASVPMGAQDLISKLLRHNPSERLPLAQVSAHPWVRANSRRVLPPSALQSVA
notes: Aurora kinase B, human, from pcDNA:Flag-Aurora kinase B; the functional rows use this molecule for that purified protein; also called FL-AurB; Flag-AurB; source: in vitro translated (TNT Coupled Reticulocyte Lysate System, Promega)
Q: With B1 as the molecule, how does the “bound AurB, percent of E6 wild type” value (GST-HPV16 E6 S150A) read?
A: 57%

Q: What about the “bound AurB, percent of E6 wild type” value (GST-HPV16 E6 T140A) of the same molecule?
A: 45%

Q: What about the “bound AurB, percent of E6 wild type” value (GST-HPV16 E6 S145A) of the same molecule?
A: 27%

Q: And the “bound AurB, percent of E6 wild type” value (GST-HPV16 E6 S89A)?
A: 44%
